The values that follow are results of earlier work, collected in publication PMC3634864.

This data set concerns the target Hemoglobin (Homo sapiens) (UniProt P69905).
Chain of UniProt P69905 (P69905 2-142, chain 1 of 2): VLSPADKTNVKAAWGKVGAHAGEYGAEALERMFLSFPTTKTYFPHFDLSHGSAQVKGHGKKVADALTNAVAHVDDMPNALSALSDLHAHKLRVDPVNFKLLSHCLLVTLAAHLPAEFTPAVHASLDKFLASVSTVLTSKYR
Chain of UniProt P69905 (P68871 2-147, chain 2 of 2, further chain): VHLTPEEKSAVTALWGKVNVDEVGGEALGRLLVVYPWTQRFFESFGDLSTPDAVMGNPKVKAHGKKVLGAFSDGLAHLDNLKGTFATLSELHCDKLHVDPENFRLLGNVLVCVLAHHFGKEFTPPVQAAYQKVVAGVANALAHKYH

What is called Kd is the concentration at which binding is half-saturated. On to Haptoglobin (from UniProt P00738), for which the Kd was below 1 pM.
